{"source": "patent US6642368B1", "about": "“Programmed cell death and caspase-12” (The General Hospital Corporation, priority 1998, dated 2003)", "target": "T1, caspase-12 (Mus musculus, UniProt O08736)", "T1 sequence (O08736 1-419)": "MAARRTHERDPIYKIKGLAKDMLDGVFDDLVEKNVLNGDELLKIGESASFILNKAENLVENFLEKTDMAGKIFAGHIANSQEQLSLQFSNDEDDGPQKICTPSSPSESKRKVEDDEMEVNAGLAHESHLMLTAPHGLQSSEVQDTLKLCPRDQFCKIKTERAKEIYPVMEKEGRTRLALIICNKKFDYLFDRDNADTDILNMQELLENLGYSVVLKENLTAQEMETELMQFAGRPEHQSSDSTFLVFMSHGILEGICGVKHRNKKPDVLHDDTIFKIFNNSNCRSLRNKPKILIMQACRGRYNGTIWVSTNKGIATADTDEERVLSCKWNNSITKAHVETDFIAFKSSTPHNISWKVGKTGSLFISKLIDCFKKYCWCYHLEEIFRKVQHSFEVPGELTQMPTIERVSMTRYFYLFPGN", "assay": "Suppression of cell-killing activity of caspase-12 by baculovirus p35", "format": "cell-based", "details": "unpublished data", "data": [{"molecule": "baculovirus p35: virus inhibitor for the caspase family (protein, UniProt P08160 1-299, looked up) Early 35 kDa protein: MCVIFPVEIDVSQTIIRDCQVDKQTRELVYINKIMNTQLTKPVLMMFNISGPIRSVTRKNNNLRDRIKSKVDEQFDQLERDYSDQMDGFHDSIKYFKDEHYSVSCQNGSVLKSKFAKILKSHDYTDKKSIEAYEKYCLPKLVDERNDYYVAVCVLKPGFENGSNQVLSFEYNPIGNKVIVPFAHEINDTGLYEYDVVAYVDSVQFDGEQFEEFVQSLILPSSFKNSEKVLYYNEASKNKSMIYKALEFTTESSWGKSEKYNWKIFCNGFIYDKKSKVLYVKLHNVTSALNKNVILNTIK", "values": [{"measurement": "suppression of cell-killing activity of caspase-12", "value": "could not efficiently suppress"}]}]}
